We go through 75 variants from article PMC12102759 (2025).

The labels stand for the following.
B1: CBL peptide 540-555 (E3 ubiquitin-protein ligase CBL), 16-mer library wild type / YES SH3 (YES1 SH3 domain, residues 90-152) (parent complex)
chain 1: RDLPPPPPPDRPYSVG
chain 2: not shown
B2: ATXN2 peptide 913-928 (Ataxin-2), 16-mer library wild type / PABPC1 PABC (PABPC1 PABC domain, residues 544-623) (parent complex)
chain 1: TLNPNAKEFNPRSFSQ
chain 2: PLTASMLASAPPQEQKQMLGERLFPLIQAMHPTLAGKITGMLLEIDNSELLHMLESPESLRSKVDEAVAVLQAHQAKEAA

In one test the parent is B1. Kind of test: proteomic peptide phage display deep mutational scan (ProP-PD DMS): M13 P8 16-mer library selected against immobilised GST-tagged bait for four days (rounds), NGS of the eluted pools per day and pseudo-replica; bait immobilised on MaxiSorp plates (10 µg), library pre-cleared on GST, 2 h binding at 4 °C, five washes; one round per day, days 1-4; value from days 2 and 3.
In the case of chain 1 D2S, the screen value is 0.00111 average fractional NGS count over selection days 2 and 3 (reads of this peptide / all reads for the bait, averaged over ….
Same read-out and setting: then chain 1 D2A, with 0.00577 average fractional NGS count over selection days 2 and 3 (reads of this peptide / all reads for the bait, averaged over …; and chain 1 D2K, with 0.000177 average fractional NGS count over selection days 2 and 3 (reads of this peptide / all reads for the bait, averaged over …; and chain 1 D2G, with 0.00344 average fractional NGS count over selection days 2 and 3 (reads of this peptide / all reads for the bait, averaged over ….
Still for that read-out and setting: to chain 1 D2M belongs 0.0201 average fractional NGS count over selection days 2 and 3 (reads of this peptide / all reads for the bait, averaged over ….
Still for that read-out and setting: then chain 1 D2R, with 0.000105 average fractional NGS count over selection days 2 and 3 (reads of this peptide / all reads for the bait, averaged over …; and chain 1 D2N, with 0.00453 average fractional NGS count over selection days 2 and 3 (reads of this peptide / all reads for the bait, averaged over ….
Take chain 1 D2P: the screen value is 0.00891 average fractional NGS count over selection days 2 and 3 (reads of this peptide / all reads for the bait, averaged over ….
In the case of chain 1 D2F, the screen value is 0.000357 average fractional NGS count over selection days 2 and 3 (reads of this peptide / all reads for the bait, averaged over ….
The same measure, in the same setting: to chain 1 D2Y belongs 0.00341 average fractional NGS count over selection days 2 and 3 (reads of this peptide / all reads for the bait, averaged over …; to chain 1 R1V, 0.000334 average fractional NGS count over selection days 2 and 3 (reads of this peptide / all reads for the bait, averaged over …; to chain 1 Y13S, 0.00123 average fractional NGS count over selection days 2 and 3 (reads of this peptide / all reads for the bait, averaged over ….
The same measure, in the same setting: then chain 1 Y13N, with 0.00025 average fractional NGS count over selection days 2 and 3 (reads of this peptide / all reads for the bait, averaged over …; and chain 1 Y13H, with 0.000183 average fractional NGS count over selection days 2 and 3 (reads of this peptide / all reads for the bait, averaged over ….
The same measure, in the same setting: to chain 1 Y13K belongs 0.000696 average fractional NGS count over selection days 2 and 3 (reads of this peptide / all reads for the bait, averaged over ….
As to chain 1 Y13Q, the screen value is 0.00091 average fractional NGS count over selection days 2 and 3 (reads of this peptide / all reads for the bait, averaged over ….
Take chain 1 P8G: the screen value was 0.000141 average fractional NGS count over selection days 2 and 3 (reads of this peptide / all reads for the bait, averaged over ….
As for chain 1 P8T, the screen value was 0.0233 average fractional NGS count over selection days 2 and 3 (reads of this peptide / all reads for the bait, averaged over ….
Turning to chain 1 P8D, the screen value was 0.000795 average fractional NGS count over selection days 2 and 3 (reads of this peptide / all reads for the bait, averaged over ….
Still for that read-out and setting: to chain 1 R11Q belongs 0.00199 average fractional NGS count over selection days 2 and 3 (reads of this peptide / all reads for the bait, averaged over ….
As to chain 1 R11I, the screen value is 0.000246 average fractional NGS count over selection days 2 and 3 (reads of this peptide / all reads for the bait, averaged over ….
With chain 1 R11Y, the screen value was 0.000176 average fractional NGS count over selection days 2 and 3 (reads of this peptide / all reads for the bait, averaged over ….
Turning to chain 1 P7V, the screen value is 0.00515 average fractional NGS count over selection days 2 and 3 (reads of this peptide / all reads for the bait, averaged over ….
Still for that read-out and setting: then chain 1 P7D, with 0.00038 average fractional NGS count over selection days 2 and 3 (reads of this peptide / all reads for the bait, averaged over …; and chain 1 V15F, with 0.00636 average fractional NGS count over selection days 2 and 3 (reads of this peptide / all reads for the bait, averaged over ….
As to chain 1 V15Y, the screen value was 0.00192 average fractional NGS count over selection days 2 and 3 (reads of this peptide / all reads for the bait, averaged over ….
Still for that read-out and setting: to chain 1 V15R belongs 7.8e-05 average fractional NGS count over selection days 2 and 3 (reads of this peptide / all reads for the bait, averaged over ….
As for chain 1 P12N, the screen value is 0.000558 average fractional NGS count over selection days 2 and 3 (reads of this peptide / all reads for the bait, averaged over ….
Same read-out and setting: to chain 1 P12S belongs 0.00406 average fractional NGS count over selection days 2 and 3 (reads of this peptide / all reads for the bait, averaged over …; to chain 1 P12V, 0.002 average fractional NGS count over selection days 2 and 3 (reads of this peptide / all reads for the bait, averaged over ….
Regarding chain 1 P12K, the screen value was 0.00165 average fractional NGS count over selection days 2 and 3 (reads of this peptide / all reads for the bait, averaged over ….
Still for that read-out and setting: to chain 1 P12G belongs 0.000184 average fractional NGS count over selection days 2 and 3 (reads of this peptide / all reads for the bait, averaged over …; to chain 1 P12L, 0.0025 average fractional NGS count over selection days 2 and 3 (reads of this peptide / all reads for the bait, averaged over …; to chain 1 P12W, 0.00363 average fractional NGS count over selection days 2 and 3 (reads of this peptide / all reads for the bait, averaged over ….
On the same count and under the same terms, to chain 1 P12D belongs 0.00117 average fractional NGS count over selection days 2 and 3 (reads of this peptide / all reads for the bait, averaged over ….
The same measure, in the same setting: then chain 1 P12M, with 0.0175 average fractional NGS count over selection days 2 and 3 (reads of this peptide / all reads for the bait, averaged over ….
chain 1 P5D: the screen value is 0.00109 average fractional NGS count over selection days 2 and 3 (reads of this peptide / all reads for the bait, averaged over ….
The same measure, in the same setting: to chain 1 P5N belongs 0.00347 average fractional NGS count over selection days 2 and 3 (reads of this peptide / all reads for the bait, averaged over ….
As for chain 1 P5V, the screen value is 0.0116 average fractional NGS count over selection days 2 and 3 (reads of this peptide / all reads for the bait, averaged over ….
Still for that read-out and setting: then chain 1 P6L, with 0.000189 average fractional NGS count over selection days 2 and 3 (reads of this peptide / all reads for the bait, averaged over ….
On to chain 1 P6R, for which the screen value was 0.00111 average fractional NGS count over selection days 2 and 3 (reads of this peptide / all reads for the bait, averaged over ….
On the same count and under the same terms, then chain 1 P6K, with 0.00059 average fractional NGS count over selection days 2 and 3 (reads of this peptide / all reads for the bait, averaged over …; and chain 1 P9T, with 0.000876 average fractional NGS count over selection days 2 and 3 (reads of this peptide / all reads for the bait, averaged over …; and chain 1 P9V, with 0.00298 average fractional NGS count over selection days 2 and 3 (reads of this peptide / all reads for the bait, averaged over ….
chain 1 P9I: the screen value is 0.000523 average fractional NGS count over selection days 2 and 3 (reads of this peptide / all reads for the bait, averaged over ….
Still for that read-out and setting: then chain 1 P9G, with 0.00146 average fractional NGS count over selection days 2 and 3 (reads of this peptide / all reads for the bait, averaged over ….
Take chain 1 P9F: the screen value was 0.000295 average fractional NGS count over selection days 2 and 3 (reads of this peptide / all reads for the bait, averaged over ….
On the same count and under the same terms, to chain 1 P9E belongs 0.000429 average fractional NGS count over selection days 2 and 3 (reads of this peptide / all reads for the bait, averaged over …; to chain 1 P9K, 0.00297 average fractional NGS count over selection days 2 and 3 (reads of this peptide / all reads for the bait, averaged over …; to chain 1 L3G, 7.18e-05 average fractional NGS count over selection days 2 and 3 (reads of this peptide / all reads for the bait, averaged over ….
As for chain 1 L3V, the screen value is 0.00179 average fractional NGS count over selection days 2 and 3 (reads of this peptide / all reads for the bait, averaged over ….
Same read-out and setting: then chain 1 L3N, with 7.55e-05 average fractional NGS count over selection days 2 and 3 (reads of this peptide / all reads for the bait, averaged over …; and chain 1 S14P, with 0.00266 average fractional NGS count over selection days 2 and 3 (reads of this peptide / all reads for the bait, averaged over ….
The same measure, in the same setting: to chain 1 S14G belongs 0.00254 average fractional NGS count over selection days 2 and 3 (reads of this peptide / all reads for the bait, averaged over …; to chain 1 S14E, 0.0212 average fractional NGS count over selection days 2 and 3 (reads of this peptide / all reads for the bait, averaged over …; to chain 1 S14V, 7.3e-05 average fractional NGS count over selection days 2 and 3 (reads of this peptide / all reads for the bait, averaged over ….
Still for that read-out and setting: to chain 1 D10S belongs 0.000232 average fractional NGS count over selection days 2 and 3 (reads of this peptide / all reads for the bait, averaged over ….
For the variant chain 1 D10Y, the screen value was 0.000449 average fractional NGS count over selection days 2 and 3 (reads of this peptide / all reads for the bait, averaged over ….
The same measure, in the same setting: to chain 1 D10L belongs 0.00104 average fractional NGS count over selection days 2 and 3 (reads of this peptide / all reads for the bait, averaged over ….
Same read-out and setting: to chain 1 D10G belongs 0.00202 average fractional NGS count over selection days 2 and 3 (reads of this peptide / all reads for the bait, averaged over …; to chain 1 D10T, 0.00033 average fractional NGS count over selection days 2 and 3 (reads of this peptide / all reads for the bait, averaged over …; to chain 1 P4A, 0.000327 average fractional NGS count over selection days 2 and 3 (reads of this peptide / all reads for the bait, averaged over ….
In the case of chain 1 P4V, the screen value is 0.000427 average fractional NGS count over selection days 2 and 3 (reads of this peptide / all reads for the bait, averaged over ….
Still for that read-out and setting: to chain 1 P4F belongs 9.76e-05 average fractional NGS count over selection days 2 and 3 (reads of this peptide / all reads for the bait, averaged over ….

In a further test the parent is B2. The description is as above.
On to chain 1 N3S, for which the screen value is 0.0019 average fractional NGS count over selection days 2 and 3 (reads of this peptide / all reads for the bait, averaged over ….
The same measure, in the same setting: then chain 1 F14Y, with 0.00139 average fractional NGS count over selection days 2 and 3 (reads of this peptide / all reads for the bait, averaged over …; and chain 1 F14L, with 0.00171 average fractional NGS count over selection days 2 and 3 (reads of this peptide / all reads for the bait, averaged over …; and chain 1 F14N, with 0.00127 average fractional NGS count over selection days 2 and 3 (reads of this peptide / all reads for the bait, averaged over ….
Turning to chain 1 F14A, the screen value was 0.000336 average fractional NGS count over selection days 2 and 3 (reads of this peptide / all reads for the bait, averaged over ….
For chain 1 F14V, the screen value is 0.00125 average fractional NGS count over selection days 2 and 3 (reads of this peptide / all reads for the bait, averaged over ….
On to chain 1 F14H, for which the screen value was 0.00184 average fractional NGS count over selection days 2 and 3 (reads of this peptide / all reads for the bait, averaged over ….
On the same count and under the same terms, then chain 1 F14I, with 0.000362 average fractional NGS count over selection days 2 and 3 (reads of this peptide / all reads for the bait, averaged over …; and chain 1 L2M, with 0.000384 average fractional NGS count over selection days 2 and 3 (reads of this peptide / all reads for the bait, averaged over …; and chain 1 L2W, with 0.000443 average fractional NGS count over selection days 2 and 3 (reads of this peptide / all reads for the bait, averaged over ….
The same measure, in the same setting: then chain 1 P4T, with 0.000273 average fractional NGS count over selection days 2 and 3 (reads of this peptide / all reads for the bait, averaged over ….
